Patent EP4582447A1 (Quaerite Biopharm Research (Beijing) Co., Ltd., dated 2025)
Where two headings read alike, the source gives them in different places.

How the values were obtained:
Human VEGFA165 [1] = biological target: T1, Human VEGFA165 (human, UniProt P15692-4 27-191); experiment: cell-based or functional assay
Human VEGFA165 [2] = biological target: T1, Human VEGFA165; experiment: SPR, VEGFA165 on CM5
Human VEGFA165 [3] = biological target: T1, Human VEGFA165; experiment: SPR Biacore 8K, VEGFA165 amine-coupled on CM5, nanobody as analyte, 1:1 model
Human VEGFA165 [4] = biological target: T1, Human VEGFA165; experiment: phage ELISA, VEGFA coated 0.5 µg/mL, anti-M13(HRP)
[5] = biological target: 3% milk powder (negative control); experiment: phage ELISA, 3% milk powder coated (negative control), anti-M13(HRP)
Human VEGFA165 [6] = biological target: T1, Human VEGFA165; experiment: ELISA, VEGFA coated 0.3 µg/mL, anti-His detection
Human VEGFA165 [7] = biological target: T1, Human VEGFA165; experiment: competition ELISA on coated VEGFA, competitor VEGFR2-ECD-Fc 1 nM
Human VEGFA165 [8] = biological target: T1, Human VEGFA165; experiment: ELISA, VEGFA coated 0.3 µg/mL, anti-His detection; remark: listed apart in the source
Human VEGFA165 [9] = biological target: T1, Human VEGFA165; experiment: SPR Biacore 8K, VEGFA165 amine-coupled on CM5, nanobody as analyte, 1:1 model; remark: listed apart in the source
Human VEGFA165 [10] = biological target: T1, Human VEGFA165; experiment: competition ELISA on coated VEGFA, competitor VEGFR2-ECD-Fc 1 nM; remark: listed apart in the source
Human VEGFA165 [11] = biological target: T1, Human VEGFA165; experiment: competition ELISA on coated VEGFA, competitor VEGFR2-ECD-Fc 2 nM

T1 sequence (P15692 other isoform, or with tags, fused parts or gaps limits assumed): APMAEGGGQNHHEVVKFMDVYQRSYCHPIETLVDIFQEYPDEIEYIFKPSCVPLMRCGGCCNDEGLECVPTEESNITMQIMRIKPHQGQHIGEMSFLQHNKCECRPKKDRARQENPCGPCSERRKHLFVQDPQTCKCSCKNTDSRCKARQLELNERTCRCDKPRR

Row | fold difference of KD from the positive control BI-VEGF ab (Human VEGFA165 [2]) | Kd (Human VEGFA165 [3]) | koff (Human VEGFA165 [3]) | kon (Human VEGFA165 [3]) | OD450 (Human VEGFA165 [4]) | OD450 [5] | EC50 (Human VEGFA165 [6]) | IC50 (Human VEGFA165 [7]) | Maximum inhibition rate (%) (Human VEGFA165 [7]) | EC50 (Human VEGFA165 [8]) | other results | Molecule
1 |  |  |  |  |  |  |  |  |  |  | Maximum inhibition rate (%) of HUVEC proliferation (Human VEGFA165 [1]): 0% | negative control antibody (nanobody binding to an irrelevant antigen) (VHH)
2 | < 3 fold | 0.62 nM | 0.000172 s⁻¹ | 277000 M⁻¹ s⁻¹ | 2.67 OD450 | 0.0363 OD450 | 0.67 nM | 2.07 nM | 97.5% |  |  | V31 (VHH, Purified with C-terminal GGGGS-6×His) VHH: QLQLVESGGGSVQPGGSLRLSCEVSGRTFASYTMGWFRQAPGKEREFVVAISKGGYKYDAVSLEARFTISKDNTKNTVYLQMNSLKPEDTAVYYCAGTRAYGSSRLRLAKTYEYWGQGTQVTVSS
3 | < 3 fold | 0.305 nM | 0.000108 s⁻¹ | 353000 M⁻¹ s⁻¹ | 3.11 OD450 | 0.0362 OD450 | 0.84 nM | 7.48 nM | 92.2% | 2.03 nM |  | V40 (VHH, Purified with C-terminal GGGGS-6×His) VHH: QLQLVESGGGSVQPGGSLRLSCEVSGRTFTSYTMGWFRQAPGKEREFVVAISKGGYKYNAVSLEARFTISKDNTKNTVYLQMNSLKPEDTAVYYCAGTRAYGSSRLRLAKTYEYWGQGTQVTVSS
4 |  |  |  |  |  |  |  |  |  |  | Kd (Human VEGFA165 [9]): 0.243 nM; koff (Human VEGFA165 [9]): 8.24e-05 s⁻¹; kon (Human VEGFA165 [9]): 339000 M⁻¹ s⁻¹ | V1-2m (VHH, Humanized V1) VHH: EVQLVESGGGLVQPGGSLRLSCAASGRTFSSYTMGWFRQAPGKEREFVVAISKGGYKYDSVSLEARFTISRDNSKNTVYLQMNSLRPEDTAVYYCAATRAYGSSRLRLADTYEYWGQGTLVTVSS
5 |  |  |  |  |  |  |  |  |  |  | IC50 (Human VEGFA165 [10]): 8.63 nM; Maximum inhibition rate (%) (Human VEGFA165 [10]): 93.4% | V43-3H-78 (VHH, Humanized V43) VHH: EVQLVESGGGLVQPGGSLRLSCAASGRTFTSYTMGWFRQAPGKEREFVVAISKGGYKYDSVSLEARFTISRDNSKNTVYLQMNSLRAEDTAVYYCAGTRAYGSSRLRLANTYEYWGQGTLVTVSS
6 |  |  |  |  |  |  |  |  |  | 2.34 nM |  | V40-4H-4m (VHH, Humanized V40) VHH: EVQLVESGGGLVQPGGSLRLSCAASGRTFTSYTMGWFRQAPGKEREFVVAISKGGYKYNAVSLEARFTISRDNAKNTVYLQMNSLRPEDTAVYYCASTRAYGSSRLRLAKTYEYWGQGTLVTVSS
7 | < 3 fold | 0.285 nM | 0.00012 s⁻¹ | 419000 M⁻¹ s⁻¹ | 2.77 OD450 | 0.0623 OD450 | 0.36 nM | 4.72 nM | 96.3% |  |  | V36 (VHH, Purified with C-terminal GGGGS-6×His) VHH: QLQLVESGGGSVQPGGSLRLSCEVSGRTFASYTMGWFRQAPGKEREFVVAISKGGYKYDSVSLEARFTISKDNTKNTVYLQMNSLKPEDTAVYYCAGTRAYGSSRLRLADTYEYWGQGTQVTVSS
8 | < 3 fold | 0.193 nM | 8.09e-05 s⁻¹ | 418000 M⁻¹ s⁻¹ | 2.5 OD450 | 0.0519 OD450 | 0.53 nM | 6 nM | 93.7% |  |  | V43 (VHH, Purified with C-terminal GGGGS-6×His) VHH: QLQLVESGGGSVQPGGSLRLSCEVSGRTFTSYTMGWFRQAPGKEREFVVAISKGGYKYDSVSLEARFTISKDNTKNTVYLQMNSLKPEDTAVYYCAGTRAYGSSRLRLANTYEYWGQGTQVTVSS
9 |  |  |  |  |  |  |  |  |  |  | Kd (Human VEGFA165 [9]): 0.252 nM; koff (Human VEGFA165 [9]): 9.08e-05 s⁻¹; kon (Human VEGFA165 [9]): 360000 M⁻¹ s⁻¹ | V1-com-87 (VHH, Humanized V1) VHH: EVQLVESGGGLVQPGGSLRLSCAASGRTFSSYTMGWFRQAPGKEREFVVAISKGGYKYDSVSLEARFTISRDNSKNTLYLQMNSLRPEDTAVYYCAATRAYGSSRLRLADTYEYWGQGTLVTVSS
10 |  |  |  |  |  |  |  |  |  |  | Kd (Human VEGFA165 [9]): 0.257 nM; koff (Human VEGFA165 [9]): 8.91e-05 s⁻¹; kon (Human VEGFA165 [9]): 347000 M⁻¹ s⁻¹; IC50 (Human VEGFA165 [11]): 28.5 nM; Maximum inhibition rate (%) (Human VEGFA165 [11]): 93.7% | V1-com-78 (VHH, Humanized V1) VHH: EVQLVESGGGLVQPGGSLRLSCAASGRTFSSYTMGWFRQAPGKEREFVVAISKGGYKYDSVSLEARFTISRDNSKNTVYLQMNSLRAEDTAVYYCAATRAYGSSRLRLADTYEYWGQGTLVTVSS
11 |  |  |  |  |  |  |  |  |  | 1.38 nM |  | V30-3H-2m (VHH, Humanized V30) VHH: EVQLVESGGGLVQPGGSLRLSCAASGRTFSSYTMGWFRQAPGKGREFVVAISKGGYKYDAVSLEARFTISRDNSKNTVYLQMNSLRPEDTAVYYCAATRAYGSSRLRLAKTYEYWGQGTLVTVSS
12 | < 3 fold | 0.482 nM | 0.00016 s⁻¹ | 331000 M⁻¹ s⁻¹ | 2.77 OD450 | 0.0359 OD450 | 0.57 nM |  |  |  |  | V41 (VHH, Purified with C-terminal GGGGS-6×His) VHH: QLQLVESGGGSVQPGGSLRLSCEVSGRTFSSYTMGWFRQAPGKEREFVVAISKGGYKYDSVSLEARFTISKDNTKNTVYLQMNSLKPEDTAVYYCAGTRAYGSSRLRLAKTYEYWGQGTQVTVSS
13 |  |  |  |  |  |  |  |  |  | 2.04 nM | IC50 (Human VEGFA165 [11]): 31.7 nM; Maximum inhibition rate (%) (Human VEGFA165 [11]): 84.8% | V15-2m (VHH, Humanized V15) VHH: EVQLVESGGGLVQPGGSLRLSCAASGRTFASYTMGWFRQAPGKEREFVVAISKGGYKYDSVSLEARFTISRDNSKNTVYLQMNSLRPEDTAVYYCAGTRAYGSSRLRLAETYEYWGQGTLVTVSS
14 |  |  |  |  |  |  |  |  |  | 2.05 nM |  | V40-3H-4m (VHH, Humanized V40) VHH: EVQLVESGGGLVQPGGSLRLSCAASGRTFSSYTMGWFRQAPGKEREFVVAISKGGYKYNAVSLEARFTISRDNAKNTVYLQMNSLRPEDTAVYYCASTRAYGSSRLRLAKTYEYWGQGTLVTVSS
15 |  |  |  |  |  |  |  |  |  | 1.42 nM | IC50 (Human VEGFA165 [11]): 26 nM; Maximum inhibition rate (%) (Human VEGFA165 [11]): 87.2% | V15-4m (VHH, Humanized V15) VHH: EVQLVESGGGLVQPGGSLRLSCAASGRTFASYTMGWFRQAPGKEREFVVAISKGGYKYDSVSLEARFTISRDNAKNTVYLQMNSLRPEDTAVYYCAGTRAYGSSRLRLAETYEYWGQGTLVTVSS
16 |  |  |  |  |  |  |  |  |  |  | IC50 (Human VEGFA165 [10]): 7.15 nM; Maximum inhibition rate (%) (Human VEGFA165 [10]): 91.6% | V43-3H-87 (VHH, Humanized V43) VHH: EVQLVESGGGLVQPGGSLRLSCAASGRTFTSYTMGWFRQAPGKEREFVVAISKGGYKYDSVSLEARFTISRDNSKNTLYLQMNSLRPEDTAVYYCAGTRAYGSSRLRLANTYEYWGQGTLVTVSS
17 |  |  |  |  |  |  |  |  |  | 1.64 nM |  | V40-3H-2m (VHH, Humanized V40) VHH: EVQLVESGGGLVQPGGSLRLSCAASGRTFSSYTMGWFRQAPGKEREFVVAISKGGYKYNAVSLEARFTISRDNSKNTVYLQMNSLRPEDTAVYYCAATRAYGSSRLRLAKTYEYWGQGTLVTVSS
18 | < 3 fold | 0.214 nM | 0.000136 s⁻¹ | 635000 M⁻¹ s⁻¹ | 2.68 OD450 | 0.0436 OD450 | 0.6 nM | 3.54 nM | 96.5% |  | IC50 (pM), inhibition of VEGFA-stimulated HUVEC proliferation (CCK-8) (Human VEGFA165 [1]): 1270 pM; Maximum inhibition rate (%) of HUVEC proliferation (Human VEGFA165 [1]): 87.4%; IC50 (Human VEGFA165 [10]): 5.72 nM; Maximum inhibition rate (%) (Human VEGFA165 [10]): 94.8% | V30 (VHH, Purified with C-terminal GGGGS-6×His; also called candidate antibody V30) VHH: QLQLVESGGGSVQPGGSLRLSCEVSGRTFSSYTMGWFRQAPGKGREFVVAISKGGYKYDAVSLEARFTISKDNTKNTVYLQMNSLKPEDTAVYYCAATRAYGSSRLRLAKTYEYWGQGTQVTVSS
19 |  |  |  |  |  |  |  |  |  | 2.82 nM |  | V40-4H-2m (VHH, Humanized V40) VHH: EVQLVESGGGLVQPGGSLRLSCAASGRTFTSYTMGWFRQAPGKEREFVVAISKGGYKYNAVSLEARFTISRDNSKNTVYLQMNSLRPEDTAVYYCAATRAYGSSRLRLAKTYEYWGQGTLVTVSS
20 | < 3 fold | 0.436 nM | 0.000127 s⁻¹ | 291000 M⁻¹ s⁻¹ | 2.69 OD450 | 0.0553 OD450 | 0.77 nM | 2.98 nM | 95.3% |  |  | V29 (VHH, Purified with C-terminal GGGGS-6×His) VHH: QLQLVESGGGSVQPGGSLRLSCEVSGRTFSSYTMGWFRQAPGKEREFVVAISKGGYKYDSVSLEARFTISKDNTKNTVYLQMNSLKPEDTAVYYCAGTRAYGSSRLRLANTYEYWGQGTQVTVSS
21 | < 3 fold | 0.522 nM | 0.000168 s⁻¹ | 323000 M⁻¹ s⁻¹ | 2.53 OD450 | 0.0489 OD450 | 0.64 nM | 3.91 nM | 96.3% |  |  | V33 (VHH, Purified with C-terminal GGGGS-6×His) VHH: QLQLVESGGGSVQPGGSLRLSCEVSGRTFSSYTMGWFRQAPGKEREFVVAISKGGYKYDSVSLEARFTISKDNTKNTVYLQMNSLKPEDTAVYYCAATRAYGSSRLRLAKTYEYWGQGTQVTVSS
